What all share (experiment): GC of initial substrate consumption, Michaelis-Menten fit
What all share (conditions): 330 μM H2O2 as co-substrate, pH 7.4, 50 mM NaH2PO4, 500 mM NaCl, 10% glycerol, 30 °C, 15–40 nM enzyme

Substrate in data set [1]: CCCCCCCCCCCC(=O)O
Format: biochemical, Jeotgalicoccus aerolatus. The text has this: GC of initial substrate consumption, Michaelis-Menten fit on OleTJH

Substrate in data set [2]: CCCCCCCCCCCC(=O)O
In kind it is biochemical, Lacicoccus qingdaonensis. The text has this: GC of initial substrate consumption, Michaelis-Menten fit on OleTSQ

Substrate in data set [3]: CCCCCCCCCCCC(=O)O
Format: biochemical, Jeotgalicoccus sp. ATCC 8456. The text has this: GC of initial substrate consumption, Michaelis-Menten fit on OleTJE

The values that follow come from article PMC6452516, “Biochemical characterization of three new α-olefin-producing P450 fatty acid decarboxylases with a halophilic property” (Biotechnology for Biofuels, 2019).

B1: OleTJH (Jeotgalicoccus aerolatus) (protein)
chain: MASLKRDKGLDNTLKVMKQGYLYTTNQRNRLNTTVFETKALGGKPFAVVTGKEGAEMFYNNDIVQREGMLPKRIVNTLFGKGAIHTIDGKKHVDRKALFMSLMTEGNLNYVRELTRTLWQANTQRMESMDEVNIYRESIVLLTKVGTRWAGVQAPPEQIERIATDMDIMIDSFKGLGGVFKGYKESKAARRRVEDWLEDQILETRKGNIHPPEGTALYEFAHWEDYLGNPMDSRNCAIDLMNTFRPLIAINRFVSFGLLAMHDNPVSREKIKSEPDYAYKFAQEVRRYYPFVPFLPGKAKTDIDFQGVTIPAGHGLAIDVYGTLHDESLWEDPNEFRPERFEGWDGSPFDLIPQGGGDYWTNHRCAGEWITVIIMEETMKYFAEKVTYDVPEQDLTVDLNSIPGYVKSGFVIKNVQEVVDRR
notes: recombinant, codon-optimized gene in pET28b (NdeI/XhoI), N-terminal His6 tag, E. coli BL21(DE3), Ni-NTA
As to B1, in data set [1], the Km was determined as 46 ± 15 µM, the kcat was 15.2 ± 1.88 s⁻¹ and the catalytic efficiency (kcat/Km) stood at 333000 M⁻¹ s⁻¹.

B2: OleTSQ (Lacicoccus qingdaonensis) (protein)
chain: MATIKRDKGLDNSVKVMKQGYLYTTNQRERLGVTDGVFETRALGGKRIIVLSGKDGAELFYDNDKIERSGTLPKRVVNTLFGKGAIHTTTGKVHIDRKALFMSLMTEGNLKYLRELTRNLWFANTQRMESMDQVNVYRESIIVLTKVGTRWAGVQAPEKEIENIATDMDIMIDSFKAIGSAFKGYREAKAARRRVEDWLEDQIIQTRKGKIHPPKGTALYEFAHWKDYKGEPMDSRLCGIDLMNTFRPLIAINRFVAFGALAMYENPVAREKIKQDDDYAYMFAQEVRRFYPFVPYLPAKAKVDFQYKGYEIEKDTMLALDIYGTMHDPNVWEDPNEFYPERFKDWDGSPFDLIPQGGGDYHTNHRCAGEWMTVIIMEETMKYFASRINYDVPEQDLTVDLNSLPGYIKSGFVIENVQENVDRT
notes: as for B1
B2: in data set [2], the Km is 35 ± 10 µM, the kcat is 9.5 ± 0.917 s⁻¹ and the kcat/Km was 267000 M⁻¹ s⁻¹.

B3: OleTJE (Jeotgalicoccus sp. ATCC 8456) (protein)
chain: MATLKRDKGLDNTLKVLKQGYLYTTNQRNRLNTSVFQTKALGGKPFVVVTGKEGAEMFYNNDVVQREGMLPKRIVNTLFGKGAIHTVDGKKHVDRKALFMSLMTEGNLNYVRELTRTLWHANTQRMESMDEVNIYRESIVLLTKVGTRWAGVQAPPEDIERIATDMDIMIDSFRALGGAFKGYKASKEARRRVEDWLEEQIIETRKGNIHPPEGTALYEFAHWEDYLGNPMDSRTCAIDLMNTFRPLIAINRFVSFGLHAMNENPITREKIKSEPDYAYKFAQEVRRYYPFVPFLPGKAKVDIDFQGVTIPAGVGLALDVYGTTHDESLWDDPNEFRPERFETWDGSPFDLIPQGGGDYWTNHRCAGEWITVIIMEETMKYFAEKITYDVPEQDLEVDLNSIPGYVKSGFVIKNVREVVDRT
notes: purified recombinant P450 from E. coli, His-tagged (Ni-NTA); cloning of this control enzyme not described here
As to B3, in data set [3], the Km amounted to 41 ± 4 µM, the catalytic constant (kcat) worked out at 14.3 ± 0.467 s⁻¹ and the catalytic efficiency (kcat/Km) came out at 350000 M⁻¹ s⁻¹.
